This is an account of results in US7053185B1, “Lactalbumin production process” (HAMLET Pharma AB, priority 1997, dated 2006).

Data set [1] relates to tumour cell lines. The experiment in a line: Tumour cell line viability, vital dye (trypan blue). Format: cell-based. The settings on record: for activity compared with protein isolated from human milk casein: tumour cell lines. As to the method:
The two peaks which are believed to contain MAL were kept separately and tested individually. Testing was carried out as described hereinafter in Example 4. Representative results are set out in Table 1.
(§1) The biological efficacy of the products obtained in the above Examples 1 and 2 above was tested using tumour cell lines as described in Hakansson et al (1995) supra. Cell lines were incubated with samples of the products at various concentrations in cell culture media at 37° C. for various time points. After incubation, the cells are harvested and the cell viability determined using a vital dye (trypan blue).

The test system of data set [2] is tumour cell lines. The experiment in a line: Apoptosis: oligonucleosome length DNA fragments by agarose gel electrophoresis. The format is cell-based. To be noted: material eluting at MAL position (1 M NaCl). As for the experimental part: as §1
(§2) Oligonucleosome length DNA fragments were detected by agarose gel electrophoresis. Cells (2×10^6) were lysed in 5 mM Tris, 20 mM EDTA, 0.5% Triton X-100 pH 8.0 at 4° C. for 1 hour and centrifuged at 13,000×g for 15 minutes. DNA was ethanol precipitated overnight in −20° C., treated with proteinase K and RNAse, loaded on 1.8% agarose gels and electrophoresed with constant voltage set at 50V overnight. DNA fragments were visualized with ethidium bromide using a 305 nm UV-light source and photographed using Polaroid type 55 positive-negative film.

For data set [3], the system named is cancer cells and immature cells. To be noted: cancer cells and immature cells versus healthy cells; cited from earlier work.
A further data set concerns L1210 cells. Briefly: Apoptosis-inducing activity / DNA fragmentation in L1210 cells. Format: cell-based. The settings on record: 0.7 mg/ml. As for the experimental part: as §2
The lipid concentration was defined in “MAL equivalents” as the amount extracted from a defined mass of MAL. […] However, lipids from 0.5 or 1 mg of MAL had no effect on cell viability or DNA fragmentation. […] MAL lipids were not active at concentrations when intact MAL killed the cells.

In the case of “Commercial bovine α-lactalbumin, untreated, MAL Peak 1: first MAL peak from commercial (Sigma) bovine α-lactalbumin run on casein trained column”, the “Viability of tumour cells” value is listed as 50% in the data set on tumour cell lines [1] (Dosage 0.3 mg/ml) and 0% in the data set with tumour cell lines [1] (Dosage 0.5 mg/ml).
Turning to “Commercial bovine α-lactalbumin, untreated, MAL Peak 2: second MAL peak from commercial (Sigma) bovine α-lactalbumin run on casein trained column”, the “Viability of tumour cells” value with tumour cell lines [1] (Dosage 0.5 mg/ml) and in the data set on tumour cell lines [1] (Dosage 1.0 mg/ml) was 98% throughout.

B1: Native, monomeric α-lactalbumin: native human milk α-lactalbumin converted to multimeric form on casein conditioned column, eluting at MAL position (protein, UniProt P00709 20-142, looked up)
Alpha-lactalbumin: KQFTKCELSQLLKDIDGYGGIALPELICTMFHTSGYDTQAIVENNESTEYGLFQISNKLWCKSSQVPQSRNICDISCDKFLDDDITDDIMCAKKILDIKGIDYWLAHKALCTEKLEQWLCEKL
modifications: multimeric form
notes: native human milk α-lactalbumin converted to multimeric form on casein conditioned column, eluting at MAL position
With B1, the “apoptosis-inducing / biological activity of converted material” value (“apoptosis-inducing / biological activity” below) in the data set on tumour cell lines [2] is reported as “no apoptosis-inducing activity”.

B2: Example 1: multimeric product from commercial monomeric human α-lactalbumin on matrix pre-run with human milk casein (protein, UniProt P00709 20-142, looked up)
Alpha-lactalbumin: B1 Alpha-lactalbumin
modifications: multimeric form
notes: multimeric product from commercial monomeric human α-lactalbumin on matrix pre-run with human milk casein
Take B2: the “activity compared with protein isolated from human milk casein” value in the data set on tumour cell lines [1] is recorded as “similar”.

B3: monomeric α-lactalbumin in the molten globule-like state: converted on clean matrix conditioned with lipids extracted from casein conditioned column; single peak at MAL position (protein, UniProt P00709 20-142, looked up)
Alpha-lactalbumin: B1 Alpha-lactalbumin
modifications: molten globule form
notes: converted on clean matrix conditioned with lipids extracted from casein conditioned column; single peak at MAL position
For B3, in the data set on tumour cell lines [2], the “apoptosis-inducing / biological activity” value was “apoptosis-inducing activity”.

B4: Human α-lactalbumin+, EDTA pre-treatment + EDTA buffer, MAL Peak 1: first peak from EDTA treated human milk α-lactalbumin run with EDTA buffers on casein trained column (protein, UniProt P00709 20-142, looked up)
Alpha-lactalbumin: B1 Alpha-lactalbumin
modifications: multimeric form
notes: first peak from EDTA treated human milk α-lactalbumin run with EDTA buffers on casein trained column
As to B4, the “Viability of tumour cells” value with tumour cell lines [1] (Dosage 0.5 mg/ml) and with tumour cell lines [1] (Dosage 1.0 mg/ml) was 0% throughout.

B5: Commercial human α-lactalbumin, Untreated, MAL Peak 1: first MAL peak from commercial (Sigma) human α-lactalbumin run on casein trained column (protein, UniProt P00709 20-142, looked up)
Alpha-lactalbumin: B1 Alpha-lactalbumin
modifications: multimeric form
notes: first MAL peak from commercial (Sigma) human α-lactalbumin run on casein trained column
On to B5, for which the “Viability of tumour cells” value with tumour cell lines [1] (Dosage 0.5 mg/ml) and in the data set on tumour cell lines [1] (Dosage 1.0 mg/ml) was 0% each time.

B6: α-lactalbumin treated with EDTA: EDTA treated α-lactalbumin completely converted to oligomeric form on casein conditioned column (protein, UniProt P00709 20-142, looked up)
Alpha-lactalbumin: B1 Alpha-lactalbumin
modifications: oligomeric form
notes: EDTA treated α-lactalbumin completely converted to oligomeric form on casein conditioned column
As to B6, the “apoptosis-inducing / biological activity” value in the data set with tumour cell lines [2] is “significant biological activity”.

B7: Human α-lactalbumin+, EDTA pre-treated, MAL Peak 2: second peak from EDTA pre-treated human milk α-lactalbumin, casein trained column (protein, UniProt P00709 20-142, looked up)
Alpha-lactalbumin: B1 Alpha-lactalbumin
modifications: multimeric form
notes: second peak from EDTA pre-treated human milk α-lactalbumin, casein trained column
Regarding B7, the “Viability of tumour cells” value in the data set on tumour cell lines [1] (Dosage ca. 1.5 mg/ml) stood at 98%.

B8: Human α-lactalbumin+, EDTA pre-treatment + EDTA buffer, MAL Peak 2: second peak from EDTA treated human milk α-lactalbumin run with EDTA buffers on casein trained column (protein, UniProt P00709 20-142, looked up)
Alpha-lactalbumin: B1 Alpha-lactalbumin
modifications: multimeric form
notes: second peak from EDTA treated human milk α-lactalbumin run with EDTA buffers on casein trained column
B8: the results for the “Viability of tumour cells” value with tumour cell lines [1] (Dosage 0.5 mg/ml) and in the data set with tumour cell lines [1] (Dosage 1.0 mg/ml) were 89% and 0%, respectively.

B9: MAL: oligomeric complex of α-lactalbumin in molten globule-like state, from human milk casein by ion exchange, eluting at 1M NaCl (protein, UniProt P00709 20-142, looked up)
Alpha-lactalbumin: B1 Alpha-lactalbumin
modifications: oligomeric molten globule form
notes: oligomeric complex of α-lactalbumin in molten globule-like state, from human milk casein by ion exchange, eluting at 1M NaCl
In the case of B9, the apoptotic cell death entry in data set [3] is “induces apoptotic cell death in cancer cells and immature cells, but not in healthy cells”. For the same molecule, the “apoptosis induction (reduction of cell viability, DNA fragments)” value with L1210 cells is “induced apoptosis”.

B10: Human α-lactalbumin+, Untreated, MAL Peak 2: second peak from human milk α-lactalbumin (ammonium sulphate precipitation), untreated, casein trained column (protein, UniProt P00709 20-142, looked up)
Alpha-lactalbumin: B1 Alpha-lactalbumin
modifications: multimeric form
notes: second peak from human milk α-lactalbumin (ammonium sulphate precipitation), untreated, casein trained column
As to B10, the “Viability of tumour cells” value in the data set on tumour cell lines [1] (Dosage 1.0 mg/ml) turned out to be 95%.

B11: Commercial human α-lactalbumin, Untreated, MAL Peak 2: second MAL peak from commercial (Sigma) human α-lactalbumin run on casein trained column (protein, UniProt P00709 20-142, looked up)
Alpha-lactalbumin: B1 Alpha-lactalbumin
modifications: multimeric form
notes: second MAL peak from commercial (Sigma) human α-lactalbumin run on casein trained column
B11: the “Viability of tumour cells” value with tumour cell lines [1] (Dosage 1.0 mg/ml) is 0%.

B12: Human α-lactalbumin+, Untreated, MAL Peak 1: first peak from human milk α-lactalbumin (ammonium sulphate precipitation), untreated, casein trained column (protein, UniProt P00709 20-142, looked up)
Alpha-lactalbumin: B1 Alpha-lactalbumin
modifications: multimeric form
notes: first peak from human milk α-lactalbumin (ammonium sulphate precipitation), untreated, casein trained column
For the molecule B12, the “Viability of tumour cells” value with tumour cell lines [1] (Dosage 1.0 mg/ml) came to 79%.

B13: Human α-lactalbumin+, EDTA pre-treated, MAL Peak 1: first peak from EDTA pre-treated human milk α-lactalbumin, casein trained column (protein, UniProt P00709 20-142, looked up)
Alpha-lactalbumin: B1 Alpha-lactalbumin
modifications: multimeric form
notes: first peak from EDTA pre-treated human milk α-lactalbumin, casein trained column
Turning to B13, the “Viability of tumour cells” value in the data set with tumour cell lines [1] (Dosage 1.0 mg/ml) is given as 0%.

B14: 2: multimeric product from monomeric bovine α-lactalbumin on matrix pre-run with human milk casein (protein, UniProt P00711 20-142, looked up)
Alpha-lactalbumin: EQLTKCEVFRELKDLKGYGGVSLPEWVCTTFHTSGYDTQAIVQNNDSTEYGLFQINNKIWCKDDQNPHSSNICNISCDKFLDDDLTDDIMCVKKILDKVGINYWLAHKALCSEKLDQWLCEKL
modifications: multimeric form
notes: multimeric product from monomeric bovine α-lactalbumin on matrix pre-run with human milk casein
For B14, in the data set with tumour cell lines [1], the “activity compared with protein isolated from human milk casein” value is reported as “similar”.
